Experimental data: patent US20200199241A1 (Chugai, published 2020)

T1: human FcγRIIa(R) (human, UniProt P12318 36-217)
T1 construct: also called FcgRIIaR; hFcgRIIa(R)
T1 chain: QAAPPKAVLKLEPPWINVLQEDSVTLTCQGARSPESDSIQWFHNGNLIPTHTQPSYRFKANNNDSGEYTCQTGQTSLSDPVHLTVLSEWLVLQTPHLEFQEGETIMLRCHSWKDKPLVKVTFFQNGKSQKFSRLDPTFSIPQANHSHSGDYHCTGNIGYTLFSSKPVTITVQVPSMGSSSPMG

T2: human FcγRIIb (human, UniProt P31994 43-217, limits assumed)
T2 construct: also called FcgRIIb; hFcgRIIb
T2 sequence: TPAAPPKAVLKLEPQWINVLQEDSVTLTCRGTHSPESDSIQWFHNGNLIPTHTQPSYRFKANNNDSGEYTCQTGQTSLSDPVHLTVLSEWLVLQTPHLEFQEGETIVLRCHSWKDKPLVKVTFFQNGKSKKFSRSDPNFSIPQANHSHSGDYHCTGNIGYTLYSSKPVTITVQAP

T3: human FcγRIIa(H) (human, UniProt P12318 36-217)
T3 construct: also called FcgRIIaH; hFcgRIIa(H)
T3 sequence: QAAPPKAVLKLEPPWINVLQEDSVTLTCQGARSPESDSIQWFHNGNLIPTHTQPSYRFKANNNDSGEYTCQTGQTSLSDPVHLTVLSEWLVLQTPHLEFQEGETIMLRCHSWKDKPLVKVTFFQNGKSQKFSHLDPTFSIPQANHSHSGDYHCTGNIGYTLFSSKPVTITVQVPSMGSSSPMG


Legend:
Experiment in all cases: SPR, captured antibody;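 further: antibody captured on a sensor chip, Fcγ receptor flowed over at 25 °C, receptor binding normalized to the captured antibody amount and expressed relative to the reference antibody ×100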
[1] = molecular target: T1, human FcγRIIa(R)
Protocol: (§1) Interaction between each modified antibody and Fcγ receptor prepared in the manner described above was analyzed using the BIACORE™ T100 surface plasmon resonance system (GE Healthcare), BIACORE™ T200 surface plasmon resonance system (GE Healthcare), BIACORE™ A100 surface plasmon resonance system or BIACORE™ 4000 surface plasmon resonance system. HBS-EP+ (GE Healthcare) was used for the running buffer, and measurements were carried out at 25° C. The chips used were chips in which antigen peptides, Protein A (Thermo Scientific), Protein A/G (Thermo Scientific) or Protein L (ACTIGEN® protein (Alltech or BioVision) were immobilized on the Series S Sensor Chip CMS (GE Healthcare) or Series S Sensor Chip CM4 (GE Healthcare) by amine coupling, or chips in which preliminarily biotinylated antigen peptides were allowed to interact and then immobilized on the Series S Sensor Chip SA (certified) (GE Healthcare). The target antibodies were captured on these sensor chips, Fcγ receptor diluted with the running buffer was allowed to interact, followed by measurement of the amount of bound antibody. The amounts bound were compared between antibodies. However, since the amount of Fcγ receptor bound depends on the amount of captured antibody, the values used for comparison were first corrected by dividing the amount of Fcγ receptor bound by the captured amount of each antibody. Through reaction with 10 mM glycine-HCl at pH 1.5, the sensor chips were regenerated by washing off antibody captured on the sensor chips and used repeatedly.
(§2) Binding strength was evaluated according to the following method based on the results of analyzing the interaction with each FcγR. […] That value was then further multiplied by 100, and the resulting value was used as an indicator of relative binding activity to each FcγR.

[2] = molecular target: T2, human FcγRIIb
Protocol: as §1, §2

[3] = molecular target: T4, human FcγRIa (human, UniProt P12314 16-292, limits assumed)
T4 construct: also called FcgRIa; hFcgRIa
Protocol: as §1, §2

[4] = molecular target: T3, human FcγRIIa(H)
Protocol: as §1, §2

T4 sequence (P12314 16-292 limits assumed): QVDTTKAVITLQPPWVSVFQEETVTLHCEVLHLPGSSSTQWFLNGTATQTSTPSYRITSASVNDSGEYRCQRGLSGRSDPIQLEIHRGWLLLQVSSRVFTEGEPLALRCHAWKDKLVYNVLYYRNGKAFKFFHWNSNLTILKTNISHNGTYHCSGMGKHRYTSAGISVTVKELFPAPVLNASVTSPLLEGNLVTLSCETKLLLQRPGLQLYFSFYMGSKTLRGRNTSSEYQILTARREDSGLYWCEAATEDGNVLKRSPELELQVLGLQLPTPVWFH

Binder	relative binding activity [1]	relative binding activity [2]	relative binding activity [3]	relative binding activity [4]
GpH7-B3 D270Y/GpL16-k0 (antibody, human IgG1, B3 variant; copies: 2 + 2) heavy: not shown light: DIVMTQSPLSLPVTPGEPASISCQASESLVHSNRNTYLHWYLQKPGQSPQLLIYKVSNRFSGVPDRFSGSGSGTDFTLKISRVEAEDVGVYYCSQNTHVPPTFGQGTKVEIE	-2 % of GpH7-B3/GpL16-k0	-2 % of GpH7-B3/GpL16-k0	78 % of GpH7-B3/GpL16-k0	53 % of GpH7-B3/GpL16-k0
GpH7-B3 N325G/GpL16-k0 (antibody, human IgG1, B3 variant; copies: 2 + 2) heavy: not shown light: DIVMTQSPLSLPVTPGEPASISCQASESLVHSNRNTYLHWYLQKPGQSPQLLIYKVSNRFSGVPDRFSGSGSGTDFTLKISRVEAEDVGVYYCSQNTHVPPTFGQGTKVEIE	26 % of GpH7-B3/GpL16-k0	22 % of GpH7-B3/GpL16-k0	95 % of GpH7-B3/GpL16-k0	7 % of GpH7-B3/GpL16-k0
GpH7-B3 N325R/GpL16-k0 (antibody, human IgG1, B3 variant; copies: 2 + 2) heavy: not shown light: DIVMTQSPLSLPVTPGEPASISCQASESLVHSNRNTYLHWYLQKPGQSPQLLIYKVSNRFSGVPDRFSGSGSGTDFTLKISRVEAEDVGVYYCSQNTHVPPTFGQGTKVEIE	0 % of GpH7-B3/GpL16-k0	0 % of GpH7-B3/GpL16-k0	56 % of GpH7-B3/GpL16-k0	1 % of GpH7-B3/GpL16-k0
GpH7-B3 N325A/GpL16-k0 (antibody, human IgG1, B3 variant; copies: 2 + 2) heavy: not shown light: DIVMTQSPLSLPVTPGEPASISCQASESLVHSNRNTYLHWYLQKPGQSPQLLIYKVSNRFSGVPDRFSGSGSGTDFTLKISRVEAEDVGVYYCSQNTHVPPTFGQGTKVEIE	38 % of GpH7-B3/GpL16-k0	27 % of GpH7-B3/GpL16-k0	94 % of GpH7-B3/GpL16-k0	14 % of GpH7-B3/GpL16-k0
GpH7-B3 L328N/GpL16-k0 (antibody, human IgG1, B3 variant; copies: 2 + 2) heavy: not shown light: DIVMTQSPLSLPVTPGEPASISCQASESLVHSNRNTYLHWYLQKPGQSPQLLIYKVSNRFSGVPDRFSGSGSGTDFTLKISRVEAEDVGVYYCSQNTHVPPTFGQGTKVEIE	25 % of GpH7-B3/GpL16-k0	78 % of GpH7-B3/GpL16-k0	98 % of GpH7-B3/GpL16-k0	34 % of GpH7-B3/GpL16-k0
GpH7-B3 L328P/GpL16-k0 (antibody, human IgG1, B3 variant; copies: 2 + 2) heavy: not shown light: DIVMTQSPLSLPVTPGEPASISCQASESLVHSNRNTYLHWYLQKPGQSPQLLIYKVSNRFSGVPDRFSGSGSGTDFTLKISRVEAEDVGVYYCSQNTHVPPTFGQGTKVEIE	15 % of GpH7-B3/GpL16-k0	15 % of GpH7-B3/GpL16-k0	78 % of GpH7-B3/GpL16-k0	8 % of GpH7-B3/GpL16-k0
GpH7-B3 N325K/GpL16-k0 (antibody, human IgG1, B3 variant; copies: 2 + 2) heavy: not shown light: DIVMTQSPLSLPVTPGEPASISCQASESLVHSNRNTYLHWYLQKPGQSPQLLIYKVSNRFSGVPDRFSGSGSGTDFTLKISRVEAEDVGVYYCSQNTHVPPTFGQGTKVEIE	0 % of GpH7-B3/GpL16-k0	-1 % of GpH7-B3/GpL16-k0	55 % of GpH7-B3/GpL16-k0	0 % of GpH7-B3/GpL16-k0
GpH7-B3 N325P/GpL16-k0 (antibody, human IgG1, B3 variant; copies: 2 + 2) heavy: not shown light: DIVMTQSPLSLPVTPGEPASISCQASESLVHSNRNTYLHWYLQKPGQSPQLLIYKVSNRFSGVPDRFSGSGSGTDFTLKISRVEAEDVGVYYCSQNTHVPPTFGQGTKVEIE	2 % of GpH7-B3/GpL16-k0	3 % of GpH7-B3/GpL16-k0	50 % of GpH7-B3/GpL16-k0	1 % of GpH7-B3/GpL16-k0
GpH7-B3 I332P/GpL16-k0 (antibody, human IgG1, B3 variant; copies: 2 + 2) heavy: not shown light: DIVMTQSPLSLPVTPGEPASISCQASESLVHSNRNTYLHWYLQKPGQSPQLLIYKVSNRFSGVPDRFSGSGSGTDFTLKISRVEAEDVGVYYCSQNTHVPPTFGQGTKVEIE	34 % of GpH7-B3/GpL16-k0	41 % of GpH7-B3/GpL16-k0	100 % of GpH7-B3/GpL16-k0	26 % of GpH7-B3/GpL16-k0
GpH7-B3 N325F/GpL16-k0 (antibody, human IgG1, B3 variant; copies: 2 + 2) heavy: not shown light: DIVMTQSPLSLPVTPGEPASISCQASESLVHSNRNTYLHWYLQKPGQSPQLLIYKVSNRFSGVPDRFSGSGSGTDFTLKISRVEAEDVGVYYCSQNTHVPPTFGQGTKVEIE	65 % of GpH7-B3/GpL16-k0	72 % of GpH7-B3/GpL16-k0	92 % of GpH7-B3/GpL16-k0	6 % of GpH7-B3/GpL16-k0
GpH7-B3 L328H/GpL16-k0 (antibody, human IgG1, B3 variant; copies: 2 + 2) heavy: not shown light: DIVMTQSPLSLPVTPGEPASISCQASESLVHSNRNTYLHWYLQKPGQSPQLLIYKVSNRFSGVPDRFSGSGSGTDFTLKISRVEAEDVGVYYCSQNTHVPPTFGQGTKVEIE	76 % of GpH7-B3/GpL16-k0	82 % of GpH7-B3/GpL16-k0	95 % of GpH7-B3/GpL16-k0	47 % of GpH7-B3/GpL16-k0
GpH7-B3 N325T/GpL16-k0 (antibody, human IgG1, B3 variant; copies: 2 + 2) heavy: not shown light: DIVMTQSPLSLPVTPGEPASISCQASESLVHSNRNTYLHWYLQKPGQSPQLLIYKVSNRFSGVPDRFSGSGSGTDFTLKISRVEAEDVGVYYCSQNTHVPPTFGQGTKVEIE	59 % of GpH7-B3/GpL16-k0	49 % of GpH7-B3/GpL16-k0	98 % of GpH7-B3/GpL16-k0	27 % of GpH7-B3/GpL16-k0
GpH7-B3 L328R/GpL16-k0 (antibody, human IgG1, B3 variant; copies: 2 + 2) heavy: not shown light: DIVMTQSPLSLPVTPGEPASISCQASESLVHSNRNTYLHWYLQKPGQSPQLLIYKVSNRFSGVPDRFSGSGSGTDFTLKISRVEAEDVGVYYCSQNTHVPPTFGQGTKVEIE	-13 % of GpH7-B3/GpL16-k0	-3 % of GpH7-B3/GpL16-k0	26 % of GpH7-B3/GpL16-k0	-1 % of GpH7-B3/GpL16-k0
GpH7-B3 L328K/GpL16-k0 (antibody, human IgG1, B3 variant; copies: 2 + 2) heavy: not shown light: DIVMTQSPLSLPVTPGEPASISCQASESLVHSNRNTYLHWYLQKPGQSPQLLIYKVSNRFSGVPDRFSGSGSGTDFTLKISRVEAEDVGVYYCSQNTHVPPTFGQGTKVEIE	-17 % of GpH7-B3/GpL16-k0	-4 % of GpH7-B3/GpL16-k0	30 % of GpH7-B3/GpL16-k0	-2 % of GpH7-B3/GpL16-k0
GpH7-B3 I332R/GpL16-k0 (antibody, human IgG1, B3 variant; copies: 2 + 2) heavy: not shown light: DIVMTQSPLSLPVTPGEPASISCQASESLVHSNRNTYLHWYLQKPGQSPQLLIYKVSNRFSGVPDRFSGSGSGTDFTLKISRVEAEDVGVYYCSQNTHVPPTFGQGTKVEIE	28 % of GpH7-B3/GpL16-k0	23 % of GpH7-B3/GpL16-k0	95 % of GpH7-B3/GpL16-k0	70 % of GpH7-B3/GpL16-k0
GpH7-B3 L328G/GpL16-k0 (antibody, human IgG1, B3 variant; copies: 2 + 2) heavy: not shown light: DIVMTQSPLSLPVTPGEPASISCQASESLVHSNRNTYLHWYLQKPGQSPQLLIYKVSNRFSGVPDRFSGSGSGTDFTLKISRVEAEDVGVYYCSQNTHVPPTFGQGTKVEIE	66 % of GpH7-B3/GpL16-k0	62 % of GpH7-B3/GpL16-k0	92 % of GpH7-B3/GpL16-k0	52 % of GpH7-B3/GpL16-k0
GpH7-B3 I332K/GpL16-k0 (antibody, human IgG1, B3 variant; copies: 2 + 2) heavy: not shown light: DIVMTQSPLSLPVTPGEPASISCQASESLVHSNRNTYLHWYLQKPGQSPQLLIYKVSNRFSGVPDRFSGSGSGTDFTLKISRVEAEDVGVYYCSQNTHVPPTFGQGTKVEIE	12 % of GpH7-B3/GpL16-k0	27 % of GpH7-B3/GpL16-k0	77 % of GpH7-B3/GpL16-k0	59 % of GpH7-B3/GpL16-k0
GpH7-B3 N325H/GpL16-k0 (antibody, human IgG1, B3 variant; copies: 2 + 2) heavy: not shown light: DIVMTQSPLSLPVTPGEPASISCQASESLVHSNRNTYLHWYLQKPGQSPQLLIYKVSNRFSGVPDRFSGSGSGTDFTLKISRVEAEDVGVYYCSQNTHVPPTFGQGTKVEIE	34 % of GpH7-B3/GpL16-k0	27 % of GpH7-B3/GpL16-k0	93 % of GpH7-B3/GpL16-k0	13 % of GpH7-B3/GpL16-k0
